Test results from PMC3214759 (Biochemistry, 2011).

How the values were obtained:
crystal structure = molecular target: the molecule itself; assay: crystal structure
SEC = molecular target: the molecule itself; assay: SEC

Protein	stoichiometry N (crystal structure)	stoichiometry N (SEC)
Rhizobium etli pyruvate carboxylase T882A mutant (enzyme, biotin tethered to Lys1119) PISKILVANRSEIAIRVFRAANELGIKTVAIWAEEDKLALHRFKADESYQVGRGPHLARDLGPIESYLSIDEVIRVAKLSGADAIHPGYGLLSESPEFVDACNKAGIIFIGPKADTMRQLGNKVAARNLAISVGVPVVPATEPLPDDMAEVAKMAAAIGYPVMLKASWGGGGRGMRVIRSEADLAKEVTEAKREAMAAFGKDEVYLEKLVERARHVESQILGDTHGNVVHLFERDCSVQRRNQKVVERAPAPYLSEAQRQELAAYSLKIAGATNYIGAGTVEYLMDADTGKFYFIEVNPRIQVEHTVTEVVTGIDIVKAQIHILDGAAIGTPQSGVPNQEDIRLNGHALQCRVTTEDPEHNFIPDYGRITAYRSASGFGIRLDGGTSYSGAIITRYYDPLLVKVTAWAPNPLEAISRMDRALREFRIRGVATNLTFLEAIIGHPKFRDNSYTTRFIDTTPELFQQVKRQDRATKLLTYLADVTVNGHPEAKDRPKPLENAARPVVPYANGNGVKDGTKQLLDTLGPKKFGEWMRNEKRVLLTDTTMRDGHQSLLATRMRTYDIARIAGTYSHALPNLLSLECWGGATFDVSMRFLTEDPWERLALIREGAPNLLLQMLLRGANGVGYTNYPDNVVKYFVRQAAKGGIDLFRVFDCLNWVENMRVSMDAIAEENKLCEAAICYTGDILNSARPKYDLKYYTNLAVELEKAGAHIIAVKDMAGLLKPAAAKVLFKALREATGLPIHFHTHDTSGIAAATVLAAVEAGVDAVDAAMDALSGNTSQPCLGSIVEALSGSERDPGLDPAWIRRISFYWEAVRNQYAAFESDLKGPASEVYLHEMPGGQFTNLKEQARSLGLETRWHQVAQAYADANQMFGDIVKVAPSSKVVGDMALMMVSQDLTVADVVSPDREVSFPESVVSMLKGDLGQPPSGWPEALQKKALKGEKPYTVRPGSLLKEADLDAERKVIEKKLEREVSDFEFASYLMYPKVFTDFALASDTYGPVSVLPTPAYFYGLADGEELFADIEKGKTLVIVNQAVSATDSQGMVTVFFELNGQPRRIKVPDRAHGATGAAVRRKAEPGNAAHVGAPMPGVISRVFVSSGQAVNAGDVLVSIEAMKMETAIHAEKDGTIAEVLVKAGDQIDAKDLLAVYGG	4	–
wild-type Rhizobium etli pyruvate carboxylase (enzyme) PISKILVANRSEIAIRVFRAANELGIKTVAIWAEEDKLALHRFKADESYQVGRGPHLARDLGPIESYLSIDEVIRVAKLSGADAIHPGYGLLSESPEFVDACNKAGIIFIGPKADTMRQLGNKVAARNLAISVGVPVVPATEPLPDDMAEVAKMAAAIGYPVMLKASWGGGGRGMRVIRSEADLAKEVTEAKREAMAAFGKDEVYLEKLVERARHVESQILGDTHGNVVHLFERDCSVQRRNQKVVERAPAPYLSEAQRQELAAYSLKIAGATNYIGAGTVEYLMDADTGKFYFIEVNPRIQVEHTVTEVVTGIDIVKAQIHILDGAAIGTPQSGVPNQEDIRLNGHALQCRVTTEDPEHNFIPDYGRITAYRSASGFGIRLDGGTSYSGAIITRYYDPLLVKVTAWAPNPLEAISRMDRALREFRIRGVATNLTFLEAIIGHPKFRDNSYTTRFIDTTPELFQQVKRQDRATKLLTYLADVTVNGHPEAKDRPKPLENAARPVVPYANGNGVKDGTKQLLDTLGPKKFGEWMRNEKRVLLTDTTMRDGHQSLLATRMRTYDIARIAGTYSHALPNLLSLECWGGATFDVSMRFLTEDPWERLALIREGAPNLLLQMLLRGANGVGYTNYPDNVVKYFVRQAAKGGIDLFRVFDCLNWVENMRVSMDAIAEENKLCEAAICYTGDILNSARPKYDLKYYTNLAVELEKAGAHIIAVKDMAGLLKPAAAKVLFKALREATGLPIHFHTHDTSGIAAATVLAAVEAGVDAVDAAMDALSGNTSQPCLGSIVEALSGSERDPGLDPAWIRRISFYWEAVRNQYAAFESDLKGPASEVYLHEMPGGQFTNLKEQARSLGLETRWHQVAQAYADANQMFGDIVKVTPSSKVVGDMALMMVSQDLTVADVVSPDREVSFPESVVSMLKGDLGQPPSGWPEALQKKALKGEKPYTVRPGSLLKEADLDAERKVIEKKLEREVSDFEFASYLMYPKVFTDFALASDTYGPVSVLPTPAYFYGLADGEELFADIEKGKTLVIVNQAVSATDSQGMVTVFFELNGQPRRIKVPDRAHGATGAAVRRKAEPGNAAHVGAPMPGVISRVFVSSGQAVNAGDVLVSIEAMKMETAIHAEKDGTIAEVLVKAGDQIDAKDLLAVYGG	–	4
